In patent US20080026998 (published 2008):
Like-named read-outs stand apart in the source and are kept apart here.

Tests used:
[1] = biological target: T1, plasmin (human, UniProt P00747)
T1 chain: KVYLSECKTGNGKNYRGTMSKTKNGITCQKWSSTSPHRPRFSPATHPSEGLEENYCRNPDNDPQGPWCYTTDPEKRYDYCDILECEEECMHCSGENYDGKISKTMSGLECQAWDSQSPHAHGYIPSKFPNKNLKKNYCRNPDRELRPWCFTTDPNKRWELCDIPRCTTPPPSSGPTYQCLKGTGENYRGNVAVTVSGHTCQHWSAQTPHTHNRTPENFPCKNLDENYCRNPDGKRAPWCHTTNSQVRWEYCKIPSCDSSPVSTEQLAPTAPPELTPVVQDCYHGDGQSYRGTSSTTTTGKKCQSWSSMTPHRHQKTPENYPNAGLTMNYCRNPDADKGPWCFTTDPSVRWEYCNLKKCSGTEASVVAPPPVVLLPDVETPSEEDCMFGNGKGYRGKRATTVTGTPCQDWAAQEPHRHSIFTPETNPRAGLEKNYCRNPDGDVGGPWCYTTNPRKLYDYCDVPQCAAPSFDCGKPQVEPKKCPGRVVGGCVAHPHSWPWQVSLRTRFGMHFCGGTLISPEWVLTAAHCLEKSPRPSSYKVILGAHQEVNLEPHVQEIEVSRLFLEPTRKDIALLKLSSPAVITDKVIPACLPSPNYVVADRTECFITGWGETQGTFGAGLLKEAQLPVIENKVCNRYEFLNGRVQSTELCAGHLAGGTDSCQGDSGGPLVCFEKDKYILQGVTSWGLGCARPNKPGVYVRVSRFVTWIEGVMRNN

[2] = biological target: T1, plasmin
[3] = biological target: T1, plasmin
[4] = biological target: T1, plasmin
[5] = biological target: T1, plasmin

B1: KD1 wild-type (protein)
chain: DAAQEPTGNNAEICLLPLDYGPCRALLLRYYYDRYTQSCRQFLYGGCEGNANNFYTWEACDDACWRIEKVPKV
How did the Ki [1] turn out when B1 was run?
Its Ki is 5.3 nM.

And the Ki [2]?
Its Ki is 9.7 nM.

What about the Ki [3] of the same binder?
Its Ki is 7.5 nM.

And the Ki [4]?
Its Ki is 6.4 nM.

B2: KD1 R24K (protein)
chain: DAAQEPTGNNAEICLLPLDYGPCKALLLRYYYDRYTQSCRQFLYGGCEGNANNFYTWEACDDACWRIEKVPKV
With B2 as the binder, how does the Ki [1] read?
Its Ki is 1.1 nM.

And the Ki [2]?
The Ki was 1.33 nM.

What about the Ki [3] of the same binder?
The Ki was 4.6 nM.

What about the Ki [4] of the same binder?
Its Ki is 1.02 nM.

B3: KD1 R24K/L26R (protein)
chain: DAAQEPTGNNAEICLLPLDYGPCKARLLRYYYDRYTQSCRQFLYGGCEGNANNFYTWEACDDACWRIEKVPKV
Which results are given for B3?
Ki [1]: 0.625 nM; Ki [2]: 1.06 nM; Ki [3]: 1.5 nM; Ki [4]: 1.25 nM; Ki [5]: 2.2 nM
